Consider three molecules from US20150167014A1, “MODULATION OF PLANT GROWTH BY VAS1 MUTATION” (THE SALK INSTITUTE FOR BIOLOGICAL STUDIES, priority 2013, published 2015).

Substrate in series [1]: O=C(O)C(=O)Cc1c[nH]c2ccccc12
In words: Steady-state kinetic assay of VAS1 I267M transaminase activity (rate of loss of IPA at 321 nm). The series is classed as biochemical, Arabidopsis thaliana. Particulars: other: fixed L-His 10 mM, variable 3-IPA 10 to 200 μM, 0.4 μM VAS1 I267M, 100 μM PLP, pH 8.0, 23° C. Here is the method: (§1) FIG. 9A-B. Steady-state kinetic analyses of VAS1 I267M. […] Fixed concentration of L-His (10 mM) and variable concentrations of 3-IPA from 10 to 200 μM (A) Fixed concentration of 3-IPA (300 μM) and variable concentrations of L-His from 0.1 to 10 mM (B). Apparent KM, Vmax and kcat of VAS1 are shown above each curve and standard errors calculated from Graphpad Prism 5 software (www.graphpad.com).
(§2) The coding sequence of AtVAS1 was inserted between the NcoI and XhoI sites of the expression vector pHIS8 (“HIS8” disclosed as SEQ ID NO: 1) (a modified version of pET28a (+) containing an N-terminal 8-histidine tag (SEQ ID NO: 1)), which under the control of a T7 promoter. E. coli (BL21) cells harboring the AtVAS1 expression vector were grown in Terrific Broth at 37° C. until reaching an OD600 nm of 1.0 then cooled down to 18° C. and induced with 0.5 mM isopropyl-b-D-thiogalactoside (IPTG) and allowed to grow overnight at 18° C. for approximately 12-14 hr after. Cells were harvested by centrifugation and resuspended in lysis buffer (50 mM Tris-HCl, pH 8.0, 500 mM NaCl, 20 mM imidazole, 1% (v/v) Tween-20, 10% (v/v) glycerol, 10 mM 2-mercaptoethanol) containing lysozyme (0.5 mg/ml) at 4° C. for 1 hr and lysed by sonication. The lysate was centrifuged at 18,000 rpm for 45 min at 4° C. and then the supernatant were passed over Ni2+-NTA agarose (Qiagen). The AtVAS1 protein was eluted with lysate buffer supplemented with 250 mM imidazole after washed with wash buffer (lysis buffer without Tween-20 and glycerol). The N-terminal tag was cleaved by treatment with thrombin while dialyzing overnight in dialysis buffer (50 mM Tris-HCl, (pH8.0), 500 mM NaCl, 20 mM 2-mercaptoethanol). The thrombin and uncut AtVAS1 was removed by passing over Benzamidine Sepharose 4 Fast Flow (high sub) (GE Healthcare) and Ni2+-NTA agarose. AtVAS1 was further purified by size-exclusion chromatography using a Superdex 200 HR16/60 column. AtVAS1 fractions were combined, concentrated to approximately 12 mg ml-1 and frozen at −80° C. […]
(§3) For VAS1 I267M steady-state kinetic assays, 1 mL assay mixture contained 100 mM sodium phosphate buffer (pH 8.0), 0.4 μM recombinant VAS1 I 267M, 100 μM PLP and variable amounts of His (0.1 to 10 mM) and IPA (10 to 200 μM). The reactions were incubated at 23° C. and the OD321 nm were measured at 2-min, 5-min, 8-min, 10-min, 12-min and 15-min time points to monitor the linear rate of loss of IPA. Absorbance values were corrected to changes in IPA concentration based on an IPA standard curve. At 321 nm, absorbance from Trp was negligible. KM, kcat and Vmax were calculated by nonlinear regression analysis using GraphPad Prism 5 fits to the Michaelis-Menten equation.

Substrate in series [2]: N[C@@H](Cc1c[nH]cn1)C(=O)O
The series is described as above. Particulars: other: fixed 3-IPA 300 μM, variable L-His 0.1 to 10 mM, 0.4 μM VAS1 I267M, 100 μM PLP, pH 8.0, 23° C. The series is classed as biochemical, Arabidopsis thaliana. Here is the method: as §1, §2, §3

Series [3] is described as follows: Amino donor test of VAS1 variants (19 amino acids, 3-IPA as amino acceptor). The series is classed as biochemical, Arabidopsis thaliana. Particulars: 19 natural amino acids (except Trp) as amino donor. As to the method:
VAS1 and its variants transaminase activity was monitor by HPLC-MS with an Agilent 1100 series LC-MSD instrument and an Agilent Zorbax Eclipse XDB-C18 (4.6×150 mm, […]) reversed-phase column. Chromatographic separations employed a flow rate of 0.5 mL min-1 and a linear gradient with initial and final mobile phases consisting of 95% water: 4.9%: acetonitrile: 0.1% formic acid (v/v/v), and 5% water: 94.9% acetonitrile: 0.1% formic acid (v/v/v), respectively. VAS1 mutants relative activity assays were conducted in a 200 μL volume containing 50 mM L-Met (with the exception of L-Trp), 10 mM IPA, 200 μM PLP and 10 μg of purified VAS1 or VAS1 variants protein in a reaction buffer consisting of 50 mM K2HPO4/KH2PO4 (pH 8.5). To further test the best amino donor of I267M and I267F mutant, one of 19 other amino acids (with the exception of L-Trp) was taking the place of L-Met. […] Relative specific activities were calculated after integration of the Trp peak (based on the absorbance at 254 nm) and the activity against Met and IPA was arbitrarily set to 100% for VAS1 variants M19V, M19I, M19F, I267V, 1267 M and I267F. […]

Series [4] deals with the molecule itself. In words: X-ray crystal structure of VAS1•PLP complex.

B1: Arabidopsis thaliana aminotransferase VAS1 (AtVAS1, NCBI Accession No. NP—178152, SEQ ID NO: 14), variant I267M (Ile267Met) (Arabidopsis thaliana; I267M) (protein)
chain: MGSFGMLSRRTLGTDMPVMAQIRSLMAELTNPMSLAQGVVHWQPPQKALEKVKELVWDPIISSYGPDEGLPELRQALLKKLREENKLTNSQVMVTAGANQAFVNLVITLCDAGDSVVMFEPYYFNSYMAFQMTGVTNIIVGPGQSDTLYPDADWLERTLSESKPTPKVVTVVNPGNPSGTYVPEPLLKRIAQICKDAGCWLIVDNTYEYFMYDGLKHCCVEGDHIVNVFSFSKTYGMMGWRLGYIAYSERLDGFATELVKIQDNIPMCAAIISQRLAVYALEEGSGWITERVKSLVKNRDIVKEALEPLGKENVKGGEGAIYLWAKLPEGHRDDFKVVRWLAHRHGVVVIPGCASGSPGYLRVSFGGLQEVEMRAAAARLRKGIEELLHHGMVE
notes: I267M by QuikChange mutagenesis
One may read the Km as the substrate concentration at which the rate is half of its maximum. Broadly, the kcat is the maximal rate divided by the concentration of active sites. Take B1: the results for the Km in series [1] and in series [2] were 62.4 µM and 534 µM, respectively. The turnover number (kcat) in series [1] worked out at 0.0447 s⁻¹; in series [2], 0.0392 s⁻¹.

B2: VAS1: wild-type pyridoxalphosphate-dependent aminotransferase of Arabidopsis thaliana (protein)
chain: MGSFGMLSRRTLGTDMPVMAQIRSLMAELTNPMSLAQGVVHWQPPQKALEKVKELVWDPIISSYGPDEGLPELRQALLKKLREENKLTNSQVMVTAGANQAFVNLVITLCDAGDSVVMFEPYYFNSYMAFQMTGVTNIIVGPGQSDTLYPDADWLERTLSESKPTPKVVTVVNPGNPSGTYVPEPLLKRIAQICKDAGCWLIVDNTYEYFMYDGLKHCCVEGDHIVNVFSFSKTYGMMGWRLGYIAYSERLDGFATELVKIQDNIPICAAIISQRLAVYALEEGSGWITERVKSLVKNRDIVKEALEPLGKENVKGGEGAIYLWAKLPEGHRDDFKVVRWLAHRHGVVVIPGCASGSPGYLRVSFGGLQEVEMRAAAARLRKGIEELLHHGMVE
With B2, the “aminotransferase activity / most efficient amino donor” value in series [3] is on record as “Met is the most suitable amino donor”.

B3: Arabidopsis thaliana aminotransferase VAS1 (enzyme)
chain: MGSFGMLSRRTLGTDMPVMAQIRSLMAELTNPMSLAQGVVHWQPPQKALEKVKELVWDPIISSYGPDEGLPELRQALLKKLREENKLTNSQVMVTAGANQAFVNLVITLCDAGDSVVMFEPYYFNSYMAFQMTGVTNIIVGPGQSDTLYPDADWLERTLSESKPTPKVVTVVNPGNPSGTYVPEPLLKRIAQICKDAGCWLIVDNTYEYFMYDGLKHCCVEGDHIVNVFSFSKTYGMMGWRLGYIAYSERLDGFATELVKIQDNIPICAAIISQRLAVYALEEGSGWITERVKSLVKNRDIVKEALEPLGKENVKGGEGAIYLWAKLPEGHRDDFKVVRWLAHRHGVVVIPGCASGSPGYLRVSFGGLQEVEMRAAAARLRKGIEELLHHGMVE
modifications: PLP (pyridoxal phosphate) bound as internal aldimine to the epsilon-amino group of Lys 233
notes: The protein crystallised as a symmetric homodimer with PLP; also called AtVAS1
With B3, the binding result in series [4] is on record as “binds”.
